The values that follow come from patent US20260109962.

The data set has as its target T1, 33-mer peptide from alpha-gliadin.
T1 chain: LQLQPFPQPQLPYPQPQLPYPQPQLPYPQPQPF

B1: Recombinant E40 (histidine-tagged endopeptidase 40 of Actinoallomurus A8, mature form, produced in S. lividans TK24/pIJ86/e40) (protein)
chain: AAPSGLSPANLQSAYKLPSSTAGSGQTVAIVDAYDAPTAEADLNVYRSQFGLGACTTANGCFKKVDQNGGTSYPRKDGGWAQEISLDLDMVSAVCPNCKIVLVEAKTNSFANLGTAENTAASLANVISNSYGGSDASDASYGSYYNHPGKAITVSSGDAGYGVEYPASSHYVTAVGGTSLRTASTSRGWSETAWSGAGSGCSAYNTALSGQSGLTGCSRRAVADVSAVADPATGVAVYDSTAYQGQSGWMVFGGTSVAAPIIGGVYGLAANAASIDNNYPYAHTSSLFDVTSGSNGTCTTTKWCTAGTGWDGPTGLGTPNGTGAFGHHHHHH
For B1, the “33-mer gliadin peptide degradation monitored by LC-MS/MS (1:48 enzyme vs substrate molar ratio, pH 5, 37 C): time to complete disappearance of the peptide” value is on record as “the native 33-mer peptide signal completely disappeared after only 15 minutes”; the “33-mer gliadin peptide degradation monitored by LC-MS/MS (1:96 molar ratio): time to complete degradation” value is reported as “in that case complete 33-mer degradation took 30 minutes (not shown)”; the “cleavage sites from MS/MS spectra of the digestion products” value is “E40 cleaving site occurs between F-P and Q-L residues of gliadin, leading to short peptides lacking of T-cell stimulatory capacity”.
